Here are results for one substance from patent publication US6365126.

The target in this data set is H-Ras (UniProt P01112).
H-Ras, sequence (P01112 whole entry, looked up): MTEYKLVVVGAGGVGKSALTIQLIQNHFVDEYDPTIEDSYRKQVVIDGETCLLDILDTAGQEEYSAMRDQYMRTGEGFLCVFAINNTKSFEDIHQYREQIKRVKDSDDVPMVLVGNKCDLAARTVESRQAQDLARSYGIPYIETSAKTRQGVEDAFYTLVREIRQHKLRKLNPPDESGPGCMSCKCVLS

As for “human NF1 catalytic domain fusion protein”, the “GTPase activity of H-Ras (GAP assay)” value is “All three fusion proteins stimulated the GTPase activity of H-Ras”.
